# Key:
# EcRE probe = assay: Gel mobility shift analysis of EcRE probe binding by FDs; details: 1 μM murA vs vehicle, extracts of transfected 293 cells
# Experimental: Preparation of the invention fusion protein FDs for gel shift analysis by transient transfection into 293 cells was as follows: 300 ng of individual receptor plasmids and 100 ng pCH110 internal control plasmid were cotransfected into 293 cells at 60% density in Costar 6-well plates. One well of each group was treated with 1 μM murA as ligand at the time of transfection. 40 hours later, extracts of transfected 293 cells were made by scraping the cells from a well into a low volume of phosphate buffered saline, pelleting the cells, resuspending them in 200 μl 5×gel shift buffer (Yao et al., supra 1992), and sonicating with a Kontes cell disrupter for three 10-sec. bursts at output level 30. The extracts were then centrifuged to clear the lysate and the protein was quantified. […]
# Comparative gel mobility shift analyses of FDs with control in vitro translated receptor complexes were performed using double stranded EcRE probes and labeled by Klenow fill using ^32P-dCTP and cold dGAT by standard methods. […] Band volumes were quantified using laser scanning densitometry.
# An autoradiogram of FDs and controls treated either with control vehicle or with 1 μM of murA as ligand was made with markers indicating endodimer FD or wild type receptor-binding complex band shifts. […] FIG. 2A is a graph that quantifies endodimer-sized band volumes obtained from the autoradiogram.
# [1] = system: E4-luc reporter plasmid in 293 cells; assay: Transient transfection luciferase transactivation assay with E4-luc reporter; assay type: cell-based, human
# Experimental: For quantitative transactivation analysis, transfections were performed in triplicate in 24-well plates by calcium-phosphate co-precipitation with 100 ng of an individual receptor, the reporter plasmid E4-luc, and pCH110 (SV40-β-galactosidase) as an internal control. Briefly, the reporter plasmid, E4-luc, was constructed of 4-tandem EcREs inserted upstream of a thymidine kinase gene minimal promoter directing luciferase expression. […] 1 μM ligand was added at the time of transfection, and the cells were harvested for luciferase assay 40 hours later. Harvested cell extracts were split, and one part was analyzed in a luminometer for luciferase activity and the other part was analyzed for β-galactosidase activity using an orthonitrophenyl galactoside assay by standard methods. Luciferase levels were normalized to β-galactosidase values to correct for slight differences in transfection efficiency.
molecule,measurement,setting,value
"E5U: fusion protein: Drosophila EcR at amino terminus, 5 linker segments (65 amino acids), ultraspiracle protein (protein) MKRRWSNNGGFMRLPEESSSEVTSSSNGLVLPSGVNMSPSSLDSHDYCDQDLWLCGNESGSFGGSNGHGLSQQQQSVITLAMHGCSSTLPAQTTIIPINGNANGNGGSTNGQYVPGATNLGALANGMLNGGFNGMQQQIQNGHGLINSTTPSTPTTPLHLQQNLGGAGGGGIGGMGILHHANGTPNGLIGVVGGGGGVGLGVGGGGVGGLGMQHTPRSDSVNSISSGRDDLSPSSSLNGYSANESCDAKKSKKGPAPRVQEELCLVCGDRASGYHYNALTCEGCKGFFRRSVTKSAVYCCKFGRACEMDMYMRRKCQECRLKKCLAVGMRPECVVPENQCAMKRREKKAQKEKDKMTTSPSSQHGGNGSLASGGGQDFVKKEILDLMTCEPPQHATIPLLPDEILAKCQARNIPSLTYNQLAVIYKLIWYQDGYEQPSEEDLRRIMSQPDENESQTDVSFRHITEITILTVQLIVEFAKGLPAFTKIPQEDQITLLKACSSEVMMLRMARRYDHSSDSIFFANNRSYTRDSYKMAGMADNIEDLLHFCRQMFSMKVDNVEYALLTAIVIFSDRPGLEKAQLVEAIQSYYIDTLRIYILNRHCGDSMSLVFYAKLLSILTELRTLGNQNAEMCFSLKLKNRKLPKFLEEIWDVHAIPPSVQSHLQITQEENERLERAERMRASVGGAITAGIDCDSASTSAAAAAAQHQPQPQPQPQPSSLTQNDSQHQTQPQLQPQLPPQLQGQLQPQLQPQLQTQLQPQIQPQPQLLPVSAPVPASVTAPGSLSAVSTSSEYMGGSAAIGPITPATTSSITAAVTASSTTSAVPMGNGVGVGVGVGGNVSMYANAQTAMALMGVALHSHQEQLIGGVAVKSEHSTTAGPTGPGPGGGSGGGSGTGPGGGSGGGSGTGPGGGSGGGSGTGPGGGSGGGSGTGPGGGSGGGSGTMDNCDQDASFRLSHIKEEVKPDISQLNDSNNSSFSPKAESPVPFMQAMSMVHVLPGSNSASSNNNSAGDAQMAQAPNSAGGSAAAAVQQQYPPNHPLSGSKHLCSICGDRASGKHYGVYSCEGCKGFFKRTVRKDLTYACRENRNCIIDKRQRNRCQYCRYQKCLTCGMKREAVQEERQRGARNAAGRLSASGGGSSGPGSVGGSSSQGGGGGGGVSGGMGSGNGSDDFMTNSVSRDFSIERIIEAEQRAETQCGDRALTFLRVGPYSTVQPDYKGAVSALCQVVNKQLFQMVEYARMMPHFAQVPLDDQVILLKAAWIELLIANVAWCSIVSLDDGGAGGGGGGLGHDGSFERRSPGLQPQQLFLNQSFSYHRNSAIKAGVSAIFDRILSELSVKMKRLNLDRRELSCLKAIILYNPDIRGIKSRAEIEMCREKVYACLDEHCRLEHPGDDGRFAQLLLRLPALRSISLKCQDHLFLFRITSDRPLEELFLEQLEAPPPPGLAMKLE",relative-fold increase in response element binding (endodimer band) resulting from ligand treatment,EcRE probe,0.9 fold
same,Rel. Ind. = relative induction of individual receptor groups,[1]; +ligand (1 μM murA) versus −ligand,1.6 fold
same,+Lig/E4 = luciferase activity vs. reporter only with ligand,"[1]; transiently co-transfected 293 cells, 1 μM murA, relative to E4-luc reporter only",0.62
same,−Lig/E4 = luciferase activity vs. reporter only without ligand,"[1]; transiently co-transfected 293 cells, without ligand, relative to E4-luc reporter only",0.41

# Source: patent US7057015B1, “Hormone receptor functional dimers and methods of their use” (The Salk Institute for Biological Studies, priority 1999, dated 2006)
